In patent publication US20260125478A1 (VIELA BIO, published 2026):

Experiments:
Test in all cases: Biacore; IgG1-TM captured on a Protein G chip, CD32A as analyte, 1:1 Langmuir fit, average of two experiments
[1] = biological target: T1, Human CD32A 131R extracellular domain, 6xHis_Flag tagged (human, UniProt P12318 34-217)
T1 construct: also called Hu CD32A_131Arg; human CD32A_131 Arg
T1 chain: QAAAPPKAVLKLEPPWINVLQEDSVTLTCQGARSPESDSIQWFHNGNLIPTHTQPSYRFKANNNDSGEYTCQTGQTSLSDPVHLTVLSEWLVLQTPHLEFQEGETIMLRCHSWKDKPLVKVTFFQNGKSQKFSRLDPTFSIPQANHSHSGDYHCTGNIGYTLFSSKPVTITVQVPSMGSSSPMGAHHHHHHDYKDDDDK

[2] = biological target: T2, Human CD32A 131H extracellular domain, 6xHis_Flag tagged (human, UniProt P12318 34-217)
T2 construct: Used unlabelled as the analyte in Biacore; also called Hu CD32A_131His
T2 sequence: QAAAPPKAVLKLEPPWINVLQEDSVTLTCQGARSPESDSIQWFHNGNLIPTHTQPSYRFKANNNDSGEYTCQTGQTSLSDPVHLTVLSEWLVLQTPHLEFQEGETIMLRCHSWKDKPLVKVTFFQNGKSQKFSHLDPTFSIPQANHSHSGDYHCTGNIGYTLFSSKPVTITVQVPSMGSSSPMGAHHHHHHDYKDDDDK

[3] = biological target: T3, cynomolgus CD32A version 3, 6xHis tagged (cynomolgus monkey)
T3 construct: also called Cyno CD32A; cyno CD32A (version 3)
T3 chain: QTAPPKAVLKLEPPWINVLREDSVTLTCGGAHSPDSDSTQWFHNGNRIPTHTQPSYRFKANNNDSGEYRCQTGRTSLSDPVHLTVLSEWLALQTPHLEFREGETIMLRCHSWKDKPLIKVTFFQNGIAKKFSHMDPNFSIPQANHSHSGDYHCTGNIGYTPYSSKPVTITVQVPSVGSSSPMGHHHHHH

B1: 32LO0352 (MEDI9600) (antibody, human IgG1, V domains shown)
VH: QVQLVQSGAEVKKPGASVKVSCKASGYTFTNYGMNWVRQAPGQRLEWMGWLNTYTGESWYPDDFKGRVTITRDTSASTAYMELSSLRSEDTAVYYCARGDYGYDDPLDYWGQGTLVTVSS
VL: DIVMTQSPLSLPVTPGEPASISCRSSKSLLHTNQNTYLHWFLQKPGQSPQLLIYRMSVLASGVPDRFSGSGSGTDFTLKISRVEAEDVGVYYCMQHLEYPLTFGQGTKLEIK
notes: Fluorescently labelled in the neutrophil flow cytometry assay and Alexa 647 labelled for confocal microscopy; also called clone 32LO0352; CD32LO0352
Kd [1]: 0.15 nM | koff [1]: 0.000735 s⁻¹ | kon [1]: 4.98e+06 M⁻¹ s⁻¹ | Kd [2]: 0.13 nM | koff [2]: 0.000337 s⁻¹ | kon [2]: 2.6e+06 M⁻¹ s⁻¹ | Kd [3]: 31.3 nM | koff [3]: 0.0904 s⁻¹ | kon [3]: 2.88e+06 M⁻¹ s⁻¹
